Experimental data reported in US20260248892A1 (Sanofi, published 2026).
Numbering of substitutions follows the chain as printed.

B1: scl-Fc fusion protein INS021 (Fc fusion)
chain: SFVNQHLCGSHLVEALELVCGERGFHYTPKTEEYPGDVGIVEQCCTSICSLSQLENYCGGEAEDLQVGQVELGGGPGAGSLQLALEGSLQGGPSVFLFPPKPKDTLMISRTPEVTCVVVDVSHEDPEVKFNWYVDGVEVHNAKTKPREEQYNSTYRVVSVLTVLHQDWLNGKEYKCKVSNKALPAPIEKTISKAKGQPREPQVYTLPPSRDELTKNQVSLTCLVKGFYPSDIAVEWESNGQPENNYKTTPPVLDSDGSFFLYSKLTVDKSRWQQGNVFSCSVMHEALHNHYTQKSLSLSPGGGGGSAESKYGPPCPPCPA
B2: scl-Fc fusion protein INS005 (Fc fusion)
chain: SFVNQHLCGSHLVEALHLVCGERGFAYTDKTEEYPGDVGIVEQCCTSICSLEQLENYCGGEAEDLQVGQVELGGGPGAGSLQPEGSLQGGPSVFLFPPKPKDTLMISRTPEVTCVVVDVSHEDPEVKFNWYVDGVEVHNAKTKPREEQYNSTYRVVSVLTVLHQDWLNGKEYKCKVSNKALPAPIEKTISKAKGQPREPQVYTLPPSRDELTKNQVSLTCLVKGFYPSDIAVEWESNGQPENNYKTTPPVLDSDGSFFLYSKLTVDKSRWQQGNVFSCSVMHEALHNHYTQKSLSLSPGGGGGSAESKYGPPCPPCPA
B3: scl-Fc fusion protein INS008 (Fc fusion)
chain: B2 chain with H17E, A26H, E32G, E33S, D37G
B4: scl-Fc fusion protein INS006 (Fc fusion)
chain: B2 chain with H17E, A26H
B5: scl-Fc fusion protein INS011 (Fc fusion)
chain: B2 chain with D29P, E32G, E33S, D37G
B6: scl-Fc fusion protein INS010 (Fc fusion)
chain: B2 chain with D29P
B7: scl-Fc fusion protein INS014 (Fc fusion)
chain: B2 chain with A26H, D29P, E32G, E33S, D37G, E52S, N56D
B8: scl-Fc fusion protein INS019 (Fc fusion)
chain: B2 chain with H17E, A26H, D29P, E32G, E33S, D37G, E52S, N56D
B9: scl-Fc fusion protein INS015 (Fc fusion)
chain: B2 chain with A26H, D29P, E52S
B10: scl-Fc fusion protein INS009 (Fc fusion)
chain: B2 chain with H17E, A26H, D29P, E32G, E33S, D37G
B11: scl-Fc fusion protein INS007 (Fc fusion)
chain: B2 chain with E32G, E33S, D37G
B12: scl-Fc fusion protein INS017 (Fc fusion)
chain: B2 chain with A26H, D29P, E32G, E33S, D37G, E52S
B13: scl-Fc fusion protein INS002 (Fc fusion)
chain: FVNQHLCGSHLVEALYLVCGERGFFYTDKTEEYPGDVGIVEQCCTSICSLEQLENYCGGEAEDLQVGQVELGGGPGAGSLQPLALEGSLQGGPSVFLFPPKPKDTLMISRTPEVTCVVVDVSHEDPEVKFNWYVDGVEVHNAKTKPREEQYNSTYRVVSVLTVLHQDWLNGKEYKCKVSNKALPAPIEKTISKAKGQPREPQVYTLPPSRDELTKNQVSLTCLVKGFYPSDIAVEWESNGQPENNYKTTPPVLDSDGSFFLYSKLTVDKSRWQQGNVFSCSVMHEALHNHYTQKSLSLSPGGGGGSAESKYGPPCPPCPA
B14: scl-Fc fusion protein INS012 (Fc fusion)
chain: FVNQHLCGSHLVEALHLVCGERGFHYTPKTEEYPGDVGIVEQCCTSICSLSQLEDYCGGEAEDLQVGQVELGGGPGAGSLQPEGSLQGGPSVFLFPPKPKDTLMISRTPEVTCVVVDVSHEDPEVKFNWYVDGVEVHNAKTKPREEQYNSTYRVVSVLTVLHQDWLNGKEYKCKVSNKALPAPIEKTISKAKGQPREPQVYTLPPSRDELTKNQVSLTCLVKGFYPSDIAVEWESNGQPENNYKTTPPVLDSDGSFFLYSKLTVDKSRWQQGNVFSCSVMHEALHNHYTQKSLSLSPGGGGGSAESKYGPPCPPCPA
B15: scl-Fc fusion protein INS013 (Fc fusion)
chain: B14 chain with E31G, E32S, D36G
B16: scl-Fc fusion protein INS016 (Fc fusion)
chain: B14 chain with E31G, E32S, D36G, D55N
B17: scl-Fc fusion protein INS020 (Fc fusion)
chain: B14 chain with H16E, D55N
B18: scl-Fc fusion protein INS018 (Fc fusion)
chain: B14 chain with H16E, E31G, E32S, D36G

Each binder was assayed against human insulin receptor isoform A (human, UniProt P06213-2 28-1370) (assay: cell-based or functional assay).
For B1, the “hIR-A phosphorylation [EC50 nM] mean” value was 447 nM.
B2 was tested, and the “hIR-A phosphorylation [EC50 nM] mean” value was 1510 nM.
In the case of B3, the “hIR-A phosphorylation [EC50 nM] mean” value is reported as 1410 nM.
In the case of B4, the “hIR-A phosphorylation [EC50 nM] mean” value is reported as 1110 nM.
In the case of B5, the “hIR-A phosphorylation [EC50 nM] mean” value is reported as 414 nM.
In the case of B6, the “hIR-A phosphorylation [EC50 nM] mean” value is reported as 1780 nM.
For B7, the “hIR-A phosphorylation [EC50 nM] mean” value was 300 nM.
In the case of B8, the “hIR-A phosphorylation [EC50 nM] mean” value is reported as 666 nM.
With B9 the “hIR-A phosphorylation [EC50 nM] mean” value was 211 nM.
For B10, the “hIR-A phosphorylation [EC50 nM] mean” value was 332 nM.
For B11, the “hIR-A phosphorylation [EC50 nM] mean” value was 82.5 nM.
In the case of B12, the “hIR-A phosphorylation [EC50 nM] mean” value is reported as 70.6 nM.
In the case of B13, the “hIR-A phosphorylation [EC50 nM] mean” value is reported as 36 nM.
For B14, the “hIR-A phosphorylation [EC50 nM] mean” value was 466 nM.
For B15, the “hIR-A phosphorylation [EC50 nM] mean” value was 5.58 nM.
B16 was tested, and the “hIR-A phosphorylation [EC50 nM] mean” value was 180 nM.
With B17 the “hIR-A phosphorylation [EC50 nM] mean” value was 718 nM.
With B18 the “hIR-A phosphorylation [EC50 nM] mean” value was 536 nM.

What follows are binders tested against Rat IR (rat, UniProt P15127 27-1383) (assay: cell-based or functional assay).
Chain of Rat IR (P15127 27-1383): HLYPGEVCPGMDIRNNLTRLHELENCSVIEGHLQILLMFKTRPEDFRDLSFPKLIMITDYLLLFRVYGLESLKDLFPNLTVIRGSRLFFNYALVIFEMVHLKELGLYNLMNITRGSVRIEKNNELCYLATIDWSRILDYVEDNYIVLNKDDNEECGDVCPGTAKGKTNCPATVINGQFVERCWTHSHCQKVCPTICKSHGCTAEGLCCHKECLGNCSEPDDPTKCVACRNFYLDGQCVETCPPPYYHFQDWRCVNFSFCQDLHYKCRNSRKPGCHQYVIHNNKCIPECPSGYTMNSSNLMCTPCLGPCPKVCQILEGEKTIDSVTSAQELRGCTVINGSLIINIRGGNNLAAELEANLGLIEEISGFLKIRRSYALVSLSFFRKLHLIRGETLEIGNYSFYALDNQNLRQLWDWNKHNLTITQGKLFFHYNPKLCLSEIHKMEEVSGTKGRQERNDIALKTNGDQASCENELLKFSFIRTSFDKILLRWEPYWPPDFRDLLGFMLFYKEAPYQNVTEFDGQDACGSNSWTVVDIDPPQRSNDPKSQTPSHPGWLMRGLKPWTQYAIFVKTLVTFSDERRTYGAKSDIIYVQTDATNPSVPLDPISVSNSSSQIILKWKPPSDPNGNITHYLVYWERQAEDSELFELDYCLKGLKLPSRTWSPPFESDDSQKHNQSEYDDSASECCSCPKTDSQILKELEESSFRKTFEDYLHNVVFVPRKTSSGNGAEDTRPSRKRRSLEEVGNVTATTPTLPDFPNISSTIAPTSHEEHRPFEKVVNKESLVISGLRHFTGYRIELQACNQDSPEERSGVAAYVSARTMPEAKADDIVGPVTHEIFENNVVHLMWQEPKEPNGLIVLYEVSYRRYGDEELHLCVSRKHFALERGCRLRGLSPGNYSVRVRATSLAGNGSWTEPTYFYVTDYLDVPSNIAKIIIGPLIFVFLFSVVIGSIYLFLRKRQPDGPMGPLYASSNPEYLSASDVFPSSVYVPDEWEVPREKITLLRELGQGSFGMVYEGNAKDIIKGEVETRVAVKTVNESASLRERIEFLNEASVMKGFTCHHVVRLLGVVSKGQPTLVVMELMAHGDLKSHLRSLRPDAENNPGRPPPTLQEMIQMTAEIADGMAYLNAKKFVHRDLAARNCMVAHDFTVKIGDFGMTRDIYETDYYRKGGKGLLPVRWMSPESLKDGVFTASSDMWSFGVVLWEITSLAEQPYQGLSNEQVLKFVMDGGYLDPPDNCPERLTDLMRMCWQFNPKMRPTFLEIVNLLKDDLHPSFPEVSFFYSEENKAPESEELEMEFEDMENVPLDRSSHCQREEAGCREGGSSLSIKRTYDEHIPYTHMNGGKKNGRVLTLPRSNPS
In the case of B1, the “Rat IR phosphorylation [EC50 nM] mean” value is reported as 620 nM.
B2 was tested, and the “Rat IR phosphorylation [EC50 nM] mean” value was 1570 nM.
B3 was tested, and the “Rat IR phosphorylation [EC50 nM] mean” value was 440 nM.
B4 was tested, and the “Rat IR phosphorylation [EC50 nM] mean” value was 286 nM.
B5 was tested, and the “Rat IR phosphorylation [EC50 nM] mean” value was 169 nM.
In the case of B6, the “Rat IR phosphorylation [EC50 nM] mean” value is reported as 390 nM.
B7 was tested, and the “Rat IR phosphorylation [EC50 nM] mean” value was 92.8 nM.
In the case of B8, the “Rat IR phosphorylation [EC50 nM] mean” value is reported as 2200 nM.
With B9 the “Rat IR phosphorylation [EC50 nM] mean” value was 95.7 nM.
For B10, the “Rat IR phosphorylation [EC50 nM] mean” value was 137 nM.
In the case of B11, the “Rat IR phosphorylation [EC50 nM] mean” value is reported as 54.8 nM.
B12 was tested, and the “Rat IR phosphorylation [EC50 nM] mean” value was 53.6 nM.
B13 was tested, and the “Rat IR phosphorylation [EC50 nM] mean” value was 32.1 nM.
For B14, the “Rat IR phosphorylation [EC50 nM] mean” value was 124 nM.
For B15, the “Rat IR phosphorylation [EC50 nM] mean” value was 23.6 nM.
With B16 the “Rat IR phosphorylation [EC50 nM] mean” value was 85.5 nM.
With B17 the “Rat IR phosphorylation [EC50 nM] mean” value was 247 nM.
B18 was tested, and the “Rat IR phosphorylation [EC50 nM] mean” value was 233 nM.

What follows are binders tested against human insulin receptor isoform B (human, UniProt P06213 28-1382) (assay: cell-based or functional assay).
B1 was tested, and the “hIR-B-phosphorylation [EC50 nM] mean” value was 288 nM.
With B2 the “hIR-B-phosphorylation [EC50 nM] mean” value was 522 nM.
In the case of B3, the “hIR-B-phosphorylation [EC50 nM] mean” value is reported as 90 nM.
In the case of B4, the “hIR-B-phosphorylation [EC50 nM] mean” value is reported as 388 nM.
With B5 the “hIR-B-phosphorylation [EC50 nM] mean” value was 110 nM.
In the case of B6, the “hIR-B-phosphorylation [EC50 nM] mean” value is reported as 501 nM.
In the case of B7, the “hIR-B-phosphorylation [EC50 nM] mean” value is reported as 47.9 nM.
In the case of B8, the “hIR-B-phosphorylation [EC50 nM] mean” value is reported as 292 nM.
B9 was tested, and the “hIR-B-phosphorylation [EC50 nM] mean” value was 56.3 nM.
With B10 the “hIR-B-phosphorylation [EC50 nM] mean” value was 94.1 nM.
With B11 the “hIR-B-phosphorylation [EC50 nM] mean” value was 57.3 nM.
B12 was tested, and the “hIR-B-phosphorylation [EC50 nM] mean” value was 36 nM.
B13 was tested, and the “hIR-B-phosphorylation [EC50 nM] mean” value was 22.8 nM.
B14 was tested, and the “hIR-B-phosphorylation [EC50 nM] mean” value was 178 nM.
With B15 the “hIR-B-phosphorylation [EC50 nM] mean” value was 57.2 nM.
For B16, the “hIR-B-phosphorylation [EC50 nM] mean” value was 58.8 nM.
With B17 the “hIR-B-phosphorylation [EC50 nM] mean” value was 185 nM.
For B18, the “hIR-B-phosphorylation [EC50 nM] mean” value was 260 nM.

What follows are binders tested against Pig IR (pig, UniProt F1SCL0 28-1382) (assay: cell-based or functional assay).
B1 was tested, and the “Pig IR phosphorylation [EC 50 nM] mean” value was 56.7 nM.
B2 was tested, and the “Pig IR phosphorylation [EC 50 nM] mean” value was 61.4 nM.
In the case of B3, the “Pig IR phosphorylation [EC 50 nM] mean” value is reported as 21.2 nM.
With B4 the “Pig IR phosphorylation [EC 50 nM] mean” value was 52.5 nM.
For B5, the “Pig IR phosphorylation [EC 50 nM] mean” value was 39.6 nM.
In the case of B6, the “Pig IR phosphorylation [EC 50 nM] mean” value is reported as 23.5 nM.
B7 was tested, and the “Pig IR phosphorylation [EC 50 nM] mean” value was 28.4 nM.
For B8, the “Pig IR phosphorylation [EC 50 nM] mean” value was 43 nM.
In the case of B9, the “Pig IR phosphorylation [EC 50 nM] mean” value is reported as 33.5 nM.
B10 was tested, and the “Pig IR phosphorylation [EC 50 nM] mean” value was 36.6 nM.
For B11, the “Pig IR phosphorylation [EC 50 nM] mean” value was 10.8 nM.
In the case of B12, the “Pig IR phosphorylation [EC 50 nM] mean” value is reported as 26.3 nM.
In the case of B13, the “Pig IR phosphorylation [EC 50 nM] mean” value is reported as 8.12 nM.
With B14 the “Pig IR phosphorylation [EC 50 nM] mean” value was 50.6 nM.
With B15 the “Pig IR phosphorylation [EC 50 nM] mean” value was 4.17 nM.
B16 was tested, and the “Pig IR phosphorylation [EC 50 nM] mean” value was 41.5 nM.
With B17 the “Pig IR phosphorylation [EC 50 nM] mean” value was 157 nM.
With B18 the “Pig IR phosphorylation [EC 50 nM] mean” value was 60 nM.
